Reference: patent US11254745 (CROWN BIOSCIENCE, dated 2022)

Columns and labels:
[1] = biological target: T1, human CD4 on 293T cells stably expressing CD4 (CD4-293T) (human, UniProt P01730 26-458); assay: FACS on 293T cells expressing human CD4, MFI; table under the graph (unit from the graph's axis); Table 6 of the text gives this value to 10C2
T1 construct: whole, on cells; also called 293T-CD4 cells; hCD4 (FACS)
Description: (§1) Cell binding analysis of anti-CD4 antibody was performed using 293T cell line stably expressing CD4 (CD4-293T). 2*10^5 CD4-293T cells were added to each well of 96-well plate and incubated with the indicated hybridoma supernatant or a serial concentrations of purified antibody (starting from 20 μg/mL) at 4° C. for 1 h. After the cells were washed three times with FACS buffer, the secondary antibody (PE Goat anti-mouse: 1:200) was added to the cells at 100 μl/well, and incubated at 4° C. for 40 min. Cells were washed three times with FACS buffer and analyzed by FACS Array. The binding EC50 of purified antibody was calculated with GraphPad Prism 5.
(§2) Freestyle 293 cells (200 mL at 1*10^6/mL) were transfected with 100 µg of each of the chimeric heavy and light chain expression plasmids and cultured for 6 days at 37° C. The chimeric antibody in the supernatant was then purified with Protein-A column (GE healthcare). Binding of the chimeric antibody with CD4 was measured by ELISA (FIG. 3, Table 5) and FACS (FIG. 4, Table 6), using the similar methods described above in Example 2.

[2] = biological target: T1, human CD4 on 293T cells stably …; assay: FACS, chimeric antibody on CD4-293T cells
Description: as §1, §2

[3] = biological target: T2, extracellular domain of hCD4 fused with a histidine tag (hCD4-HisTag) (human, UniProt P01730 26-396); assay: Biacore T200 SPR, antibody captured on Protein A, CD4-HisTag analyte, 1:1 fit, 25 C
T2 construct: extracellular domain; also called human CD4-HisTag; not shown: histidine tag
Description: The binding kinetics between CD4 and CD4 antibodies were measured by Biacore™ analysis, which was performed at 25° C. on a Biacore™ T200 instrument. Protein A (GE, Cat. No:29139131-AA) was diluted with 10 mM pH 5.0 sodium acetate and immobilized onto reference and experiment flow cells of a CM5 biosensor chip to around 15000 RU using an amine coupling kit (GE, BR10050). In the beginning of each cycle, diluted test antibody (1.5 µg/mL) was injected over experiment flow cell for 1 minute to be captured. CD4-HisTag analyte series were prepared by diluting the stocks with running buffer to 100 nM followed by 2-fold serial dilution in the same buffer down to 0.78 nM. Analytes were injected in series over the reference and experiment flow cells for 3 minutes at a flow rate of 30
μL/minute. Running buffer (PBS with 0.05% P20) was allowed to flow over for 10 minutes at a flow rate of 30 μL/minute. At the end of each cycle, the biosensor surface was regenerated with 3-minute injection of 10 mM pH 2.0 Glycine-HCl buffer at a flow rate of 10 μL/minute. For each analyte sample injection (i.e., each cycle), binding responses obtained from the experimental biosensor surface were double referenced by subtracting simultaneously recorded responses from the reference surface followed by additional subtraction of responses from a single referenced running buffer sample. The association and dissociation rate constants (ka and kd) were determined simultaneously by fitting double-referenced sensorgrams of the entire titration series to Langmuir model (1:1) using Biaevaluation software. The dissociation constant, KD, was calculated from the determined rate constants by the equation KD=kd/ka.

[4] = biological target: T3, extracellular domain of hCD4 fused with human Fc tag (hCD4-hFc) (human, UniProt P01730 26-396); assay: ELISA, chimeric antibody on hCD4, method similar to Example 2
T3 construct: extracellular domain; also called human CD4-hFc; hCD4 (ELISA); not shown: human Fc tag
Description: (§3) Example 2: Selection of the Anti-hCD4 Hybridoma Antibodies Based on Binding and Gene Reporter Assays The binding interaction between hybridoma antibody and human CD4-hFc was measured by ELISA. 96-well plates (Costar, Cat. No:9018) were coated with 100 μL of 2 μg/ml CD4-hFc (CrownBio) in PBS buffer (Hyclone, Cat. No: SH30256.01B) overnight at 4° C. The wells were aspirated and non-specific binding sites were blocked by adding 200 μL of blocking buffer containing 1% (w/v) of bovine serum albumin (BSA, Roche, Cat. No: 738328) and incubating for 1 hour at 37° C. After the plates are washed three times with PBS buffer containing 0.05% (v/v) Tween™ 20 (Sigma, Cat. No: P1379), 100 μL hybridoma supernatant or a serial concentrations of purified antibody (starting from 20 μg/mL) diluted in blocking buffer was added to each well and incubated at room temperature for 1 hour. The plates were washed and incubated with 100 μL/well of Goat anti-Mouse IgG (Thermo, Cat. No:31432) in blocking buffer for 60 min. After the plates were washed, 100 μL/well of substrate solution TMB (eBioscience, Cat. No:00-4201-56) was added, and the plates were incubated for 2 min at room temperature before 100 μL/well of 2N H_2SO_4 was added to stop the reaction. The colorimetric signals were monitored at 450 nm using a SpectraMax Plus microplate reader (Molecular Devices). For the purified antibody, data were analyzed using GraphPad Prism 5 to calculated the $EC50$.
as §2

[5] = biological target: T1, human CD4 on 293T cells stably …; assay: FACS on 293T cells expressing human CD4, MFI; table under the graph (unit from the graph's axis); Table 6 of the text gives this value to 2B6
Description: as §1, §2

[6] = biological target: T1, human CD4 on 293T cells stably …; assay: FACS on 293T cells expressing human CD4, MFI; table under the graph (unit from the graph's axis); Table 6 of the text gives this value to 11E12
Description: as §1, §2

[7] = biological target: T1, human CD4 on 293T cells stably …; assay: FACS on 293T cells expressing human CD4, MFI; table under the graph (unit from the graph's axis); Table 6 of the text gives this value to 29B7
Description: as §1, §2

[8] = biological target: T3, extracellular domain of hCD4 fused with …; assay: ELISA, purified hybridoma antibody on coated CD4-hFc
Description: as §3

| Binder | EC50 [2] [µg/mL] | Kd [3] [nM] | koff [3] [s⁻¹] | kon [3] [M⁻¹ s⁻¹] | EC50 [4] [µg/mL] | EC50 [8] [µg/mL] | other results |
| --- | --- | --- | --- | --- | --- | --- | --- |
| Chimeric 33E12 anti-CD4 antibody (antibody, human IgG1, kappa, V domains shown) VH: DVQLQESGPGLVKPSQSLSLTCTVTGYSITSDYAWNWIRQFPGNKLEWMGYISYSGITSYNPSLKSRFSITRDTSKNQFFLQLNSVTTEDTATYYCARLDSSGYGAMDYWGQGTSVTVSS VL: DIVLTQSPASLPVSLGQRATISCRASQSVSTSSYSYMHWYQQKPGQPPKLLIRYASNLESGVPARFSGSGSGTDFTLNIHPVEEEDTATYYCQHSWDFPLTFGAGTKLELKR | 0.351 | 4.25 | 0.00461 | 1.09e+06 | 0.0204 |  | EC50 [1]: 0.882 µg/mL |
| Chimeric 10C2 anti-CD4 antibody (antibody, human IgG1, kappa, V domains shown) VH: EVKLQQSGTELMKPGASVKISCKATGYTFSSYWIEWIKQRPGRGLEWIGEILPGSGSTNYNEEFTGRATFTADTFSNTAYMQLSSLTSEDSAVYYCARSVSASNWYFDVWGAGTTVTVSS VL: DIVMTQSPASLAVSLGQRATISCRASQSVSTSSYSYMHWYQQKPGQPPKFLIKYASNLESGVPARFSGSGSGTDFTLNIHPVEEEDTATYYCQHSWEIPPTFGGGTKLEIKR | 0.882 | 1.19 | 0.00019 | 160000 | 0.0179 |  | EC50 [5]: 0.669 µg/mL |
| Chimeric 2B6 anti-CD4 antibody (antibody, human IgG1, kappa, V domains shown) VH: EVQLQESGPSLVKPSQTLSLTCSVTGDSITSGYWNWIRKFPGHKLEFLGYISFADTTNYNPSLKSRVSITRDTSKNQFDLQLKSVTTEDTATYHCARDDYGYYAMDYWGQGISVTVSS VL: DIHLTQTTSSLSASLGDRVTIICRASQDIDNYLNWYQLKPDGTLKLLIYYTSRLHSGVPSRFSGSGSGTEYSLTISNLEREDVATYFCQQGNTLPTFGAGTKLELKR | 0.669 | 0.373 | 0.000122 | 327000 | 0.0165 |  | EC50 [6]: 0.316 µg/mL |
| Chimeric 11E12 anti-CD4 antibody (antibody, human IgG1, kappa, V domains shown) VH: EVQLEESGPSLVKPSQTLSLTCSVTGDSITSSYWNWIRKFPGHKLEFLGYISFADTTNYNPSLKSRISITRDTSKNQFDLQLKSVTTEDTATYYCARDDFGYYAMDYWGQGISVTVSS VL: DIYVTQTTSSLSASLGDRVTIICRASQDINNYLNWYQLKPDGTLKLLIYYTSRLHSGVPSRFGGSGSGTEYSLTISNLEQEDVATYFCQQGNTLPTFGAGTKLELKR | 0.316 | 6.26 | 0.00618 | 987000 | 0.0168 |  | EC50 [7]: 0.401 µg/mL |
| 33E12 murine hybridoma anti-CD4 antibody (antibody, V domains shown, Mouse antibody purified from hybridoma supernatant on Protein A and detected with goat anti-mouse IgG; also called hybridoma clone 33E12) VH: DVQLQESGPGLVKPSQSLSLTCTVTGYSITSDYAWNWIRQFPGNKLEWMGYISYSGITSYNPSLKSRFSITRDTSKNQFFLQLNSVTTEDTATYYCARLDSSGYGAMDYWGQGTSVTVSS VL: DIVLTQSPASLPVSLGQRATISCRASQSVSTSSYSYMHWYQQKPGQPPKLLIRYASNLESGVPARFSGSGSGTDFTLNIHPVEEEDTATYYCQHSWDFPLTFGAGTKLELK |  |  |  |  |  | 0.034 |  |
| 10C2 murine hybridoma anti-CD4 antibody (antibody, V domains shown, also called hybridoma clone 10C2) VH: EVKLQQSGTELMKPGASVKISCKATGYTFSSYWIEWIKQRPGRGLEWIGEILPGSGSTNYNEEFTGRATFTADTFSNTAYMQLSSLTSEDSAVYYCARSVSASNWYFDVWGAGTTVTVSS VL: DIVMTQSPASLAVSLGQRATISCRASQSVSTSSYSYMHWYQQKPGQPPKFLIKYASNLESGVPARFSGSGSGTDFTLNIHPVEEEDTATYYCQHSWEIPPTFGGGTKLEIK |  |  |  |  |  | 0.0368 |  |
| 2B6 murine hybridoma anti-CD4 antibody (antibody, V domains shown, also called hybridoma clone 2B6) VH: EVQLQESGPSLVKPSQTLSLTCSVTGDSITSGYWNWIRKFPGHKLEFLGYISFADTTNYNPSLKSRVSITRDTSKNQFDLQLKSVTTEDTATYHCARDDYGYYAMDYWGQGISVTVSS VL: DIHLTQTTSSLSASLGDRVTIICRASQDIDNYLNWYQLKPDGTLKLLIYYTSRLHSGVPSRFSGSGSGTEYSLTISNLEREDVATYFCQQGNTLPTFGAGTKLELK |  |  |  |  |  | 0.0261 |  |
| 11E12 murine hybridoma anti-CD4 antibody (antibody, V domains shown, also called hybridoma clone 11E12) VH: EVQLEESGPSLVKPSQTLSLTCSVTGDSITSSYWNWIRKFPGHKLEFLGYISFADTTNYNPSLKSRISITRDTSKNQFDLQLKSVTTEDTATYYCARDDFGYYAMDYWGQGISVTVSS VL: DIYVTQTTSSLSASLGDRVTIICRASQDINNYLNWYQLKPDGTLKLLIYYTSRLHSGVPSRFGGSGSGTEYSLTISNLEQEDVATYFCQQGNTLPTFGAGTKLELK |  |  |  |  |  | 0.027 |  |
| 29B7 murine hybridoma anti-CD4 antibody (antibody, V domains shown, also called hybridoma clone 29B7) VH: QVQLQQSGAELAKPGASVKMSCKTSADSLNTHWMHWVKQRPGQGLEWIGYINPYTGSGEYSQKFKGKATLTADISSSTAYMQLISLTSEDSAVYYCAYDSTGAMDYWGQGTSVTVSS VL: DIKMTQSPSSMYASLGERITITCKASQDINRYLSWFQQKPGKSPKTPIYRADRSVDGVPSRFSGSGSGQDYSLTISSLEYEDMGIYYCQQYDEFPYTFGGGTKLEIK |  |  |  |  |  | 0.0334 |  |
| Chimeric MT412 anti-CD4 antibody (antibody, human IgG1, kappa, V domains shown) VH: QIQLVQSGPELKKPGETVKISCKASGYTFTDYSMHWVKQAPGKDLKWMGWINTETGEPTYADDFKGRFAFSLETSASTAYLQINNLKNEDTATYFCAREDYYGHDGFLYWGQGTLVTVSS VL: DIVMTQSHKFMSTSVGDRVSITCKASQDVVTTVAWYQQKPGQSPKLLIYWASLRHTGVPDRFTGSGSGTDFTLTISNVQFEDLADYFCQQYSSYPYTFGGGTKLEIKR | 0.515 | 1.61 | 0.000941 | 586000 | 0.0165 |  |  |
